Experiments:
[1] = biological target: T1, CD3 expressed on cell-surface of primary human T cells (human, UniProt P07766 23-207; P04234 22-171); assay: flow cytometry on human PBMCs, CD4+ cells, donor 4574
T1 construct: also called cell-surface CD3; human CD3
Description: (§1) Briefly, peripheral blood mononuclear cells (PBMCs) were incubated with different concentrations of HIV×CD3 bispecific molecules for 1 hour at RT. […] Cells were then washed, fixed/permeabilized, and analyzed using BD LSRFortessa according to the manufacturer's protocol. The percentage of α-huIgG-APC-positive CD4+ and CD8+ T cells and the mean fluorescence intensity of the α-huIgG-APC of CD4+ and CD8+ cells were collected, and data analyzed using GraphPad Prism.
(§2) Binding experiments were performed using PBMCs from two healthy human donors.

[2] = biological target: T1, CD3 expressed on cell-surface of …; assay: flow cytometry on human PBMCs, CD8+ cells, donor 3761
Description: as §1, §2

[3] = biological target: T1, CD3 expressed on cell-surface of …; assay: flow cytometry on human PBMCs, CD8+ cells, donor 4574
Description: as §1, §2

[4] = biological target: T1, CD3 expressed on cell-surface of …; assay: flow cytometry on human PBMCs, CD4+ cells, donor 3761
Description: as §1, §2

[5] = biological target: T1, CD3 expressed on cell-surface of …; assay: cell-based or functional assay
[6] = biological target: T2, MabSelect SuRe (engineered Protein A); assay: 500 ml Expi293 expression, MabSelect SuRe capture and cation exchange; purified homodimer yield relative to parent
T2 construct: also called MabSelect SuRe column
Description: 500 ml of Expi293 cells were transfected with 0.5 mg DNA encoding selected huSP34 scFv-Fc Protein A knockout variants according to manufacturer's protocol. Four days post transfection, the cell-free clarified supernatant was collected and loaded to a MabSelect™ SuRe™ (Cytiva Life Sciences) column. Afterwards the column was washed with a low salt buffer of 25 mM Tris HCl pH 7.5, 25 mM NaCl for 10 column volumes (CV), then high salt wash of 25 mM Tris HCl pH 7.5, 500 mM NaCl for 5CV to remove non-specific binding, and finally washed with a low salt wash of 25 mM Tris HCl pH 7.5, 25 mM NaCl for 10CV. To elute the antibody, an isocratic elution step of 100 mM sodium acetate pH 3.7 was performed. The eluted pool was neutralized to pH 6.0 with 1 M Tris HCl pH 9.0, and subjected to a cation ion purification, HiTrap SP HP (Cytiva Life Sciences) to further remove impurities. The cation captured protein was washed with 10 mM sodium phosphate pH 7.0 for 10CV, then eluted in 0-30% gradient of 10 mM sodium phosphate pH 7.0, 1M NaCl for 50CV to separate the desired two targeting arm antibody (heterodimer) from the one targeted arm antibody (homodimer). Followed with gradient elution from 30-100% of 10 mM sodium phosphate pH 7.0, 1 M NaCl for 10CV to remove aggregation or homodimer in higher isoelectric point (pI). All proteins were formulated into 20 mM histidine pH 5.8 by dialysis, added additive of sucrose/tween-80, sterile filtered, and stored at 4° C. Concentration of the formulated protein was measured by A280. Purity was assessed as percent monodispersed by analytical size-exclusion chromatography. Identity of the bispecific antibody was determined by Mass Spec (MS).

T1 sequence (P07766 23-207 limits assumed, chain 1 of 2): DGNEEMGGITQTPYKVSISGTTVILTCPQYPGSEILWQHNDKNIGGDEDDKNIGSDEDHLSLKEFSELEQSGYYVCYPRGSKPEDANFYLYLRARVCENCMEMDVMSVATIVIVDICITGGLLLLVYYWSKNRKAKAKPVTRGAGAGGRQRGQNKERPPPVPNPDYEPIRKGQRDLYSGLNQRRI
T1 sequence (P04234 22-171 limits assumed, chain 2 of 2): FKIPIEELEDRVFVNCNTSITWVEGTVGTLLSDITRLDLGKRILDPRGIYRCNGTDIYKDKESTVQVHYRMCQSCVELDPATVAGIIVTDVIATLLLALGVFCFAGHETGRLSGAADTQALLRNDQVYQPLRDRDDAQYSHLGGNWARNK

| Binder | EC50 [1] | EC50 [2] | EC50 [3] | EC50 [4] | killing EC50, primary HIV-infected CD4+ cells, PBMC effector cells, isolate 657 [5] | killing EC50, primary HIV-infected CD4+ cells, PBMC effector cells, isolate 7552 [5] | scFv-Fc Homodimer Yield Relative to WT (e.g. Protein A binding) [6] |
| --- | --- | --- | --- | --- | --- | --- | --- |
| hPGT121.66 AAS + W/huSP34.3.4 scFv AAS + SAV + RF (bispecific antibody, human IgG1, lambda, L234A L235A, also called 258) EVQLVESGGGLVQPGGSLRLSCAASGFTFNTYAMNWVRQAPGKGLEWVGRIRSKYNNYATYYADSVKGRFTISRDDSKNSLYLQMNSLRTEDTAVYYCVRHGNFGHSYVSWFAYWGQGTLVTVSSGGGGSGGGGSGGGGSGGGGSQAVVTQEPSLTVSPGGTVTLTCGSSTGAVTTSHYANWVQQKPGQAPRGLIGGTSKRAPWTPARFSGSLLGGKAALTLSGAQPEDEAEYYCALWYSALWVFGGGTKLTVLEPKSSDKTHTCPPCPAPEAAGGPSVFLFPPKPKDTLMISRTPEVTCVVVDVSHEDPEVKFNWYVDGVEVHNAKTKPREEQYNSTYRVVSVLTVLHQDWLNGKEYKCKVSNKALPASIEKTISKAKGQPREPQVYTLPPSREEMTKNQVSLSCAVKGFYPSDIAVEWESNGQPENNYKTTPPVLDSDGSFFLVSKLTVDKSRWQQGNVFSCSVMHEALHNRFTQKSLSLSPGK heavy: QMQLQESGPGLVKPSETLSLTCSVSGASISDSYWSWIRRSPGKGLEWIGYVHKSGDTNYNPSLKSRVHLSLDTSKNQVSLSLTGVTAADSGKYYCARTLHGRRIYGIVAFNEWFTYFYMDVWGTGTQVTVSSASTKGPSVFPLAPSSKSTSGGTAALGCLVKDYFPEPVTVSWNSGALTSGVHTFPAVLQSSGLYSLSSVVTVPSSSLGTQTYICNVNHKPSNTKVDKKVEPKSCDKTHTCPPCPAPEAAGGPSVFLFPPKPKDTLMISRTPEVTCVVVDVSHEDPEVKFNWYVDGVEVHNAKTKPREEQYNSTYRVVSVLTVLHQDWLNGKEYKCKVSNKALPASIEKTISKAKGQPREPQVYTLPPSREEMTKNQVSLWCLVKGFYPSDIAVEWESNGQPENNYKTTPPVLDSDGSFFLYSKLTVDKSRWQQGNVFSCSVMHEALHNHYTQKSLSLSPGK light: not shown | 5.7 µg/mL | 1.3 µg/mL | 4.8 µg/mL | 5.1 µg/mL |  |  |  |
| hPGT121.66 AAS + W/huSP34.13.10 scFv AAS + SAV + RF (bispecific antibody, human IgG1, lambda, L234A L235A) EVQLVESGGGLVQPGGSLRLSCAASGFTFSTYAMNWVRQAPGKGLEWVGRIRSKYNNYATYYAASVKGRFTISRDDSKNTLYLQMNSLRTEDTAVYYCVRHGNFGHSYVSWFAYWGQGTLVTVSSGGGGSGGGGSGGGGSGGGGSQAVVTQPPSLTVSPGGTVTLTCGSSTGAVTTGHYANWVQQKPGQAPRGLIGGTNKRAPGVPARFSGSLSGGKAALTISGAQPEDEAEYYCALWYSNRWVFGGGTKLTVLEPKSSDKTHTCPPCPAPEAAGGPSVFLFPPKPKDTLMISRTPEVTCVVVDVSHEDPEVKFNWYVDGVEVHNAKTKPREEQYNSTYRVVSVLTVLHQDWLNGKEYKCKVSNKALPASIEKTISKAKGQPREPQVYTLPPSREEMTKNQVSLSCAVKGFYPSDIAVEWESNGQPENNYKTTPPVLDSDGSFFLVSKLTVDKSRWQQGNVFSCSVMHEALHNRFTQKSLSLSPGK heavy: QMQLQESGPGLVKPSETLSLTCSVSGASISDSYWSWIRRSPGKGLEWIGYVHKSGDTNYNPSLKSRVHLSLDTSKNQVSLSLTGVTAADSGKYYCARTLHGRRIYGIVAFNEWFTYFYMDVWGTGTQVTVSSASTKGPSVFPLAPSSKSTSGGTAALGCLVKDYFPEPVTVSWNSGALTSGVHTFPAVLQSSGLYSLSSVVTVPSSSLGTQTYICNVNHKPSNTKVDKKVEPKSCDKTHTCPPCPAPEAAGGPSVFLFPPKPKDTLMISRTPEVTCVVVDVSHEDPEVKFNWYVDGVEVHNAKTKPREEQYNSTYRVVSVLTVLHQDWLNGKEYKCKVSNKALPASIEKTISKAKGQPREPQVYTLPPSREEMTKNQVSLWCLVKGFYPSDIAVEWESNGQPENNYKTTPPVLDSDGSFFLYSKLTVDKSRWQQGNVFSCSVMHEALHNHYTQKSLSLSPGK light: not shown | 0.037 µg/mL | 0.095 µg/mL | 0.062 µg/mL | 0.045 µg/mL | 0.275 µg/mL | 0.011 µg/mL |  |
| hPGT121.66 AAS + W/huSP34.3.6scFv AAS + SAV + RF (bispecific antibody, human IgG1, lambda, L234A L235A, also called 259) EVQLVESGGGLVQPGGSLRLSCAASGFTFNTYAMNWVRQAPGKGLEWVGRIRSKYNNYATYYADSVKGRFTISRDDSKNSLYLQMNSLRTEDTAVYYCVRHGNFGHSYVSWFAYWGQGTLVTVSSGGGGSGGGGSGGGGSGGGGSQAVVTQPPSLTVSPGGTVTLTCGSSTGAVTTGHYANWVQQKPGQAPRGLIGGTSNRAPGVPARFSGSLSGGKAALTISGAQPEDEAEYYCALWYSARWVFGGGTKLTVLEPKSSDKTHTCPPCPAPEAAGGPSVFLFPPKPKDTLMISRTPEVTCVVVDVSHEDPEVKFNWYVDGVEVHNAKTKPREEQYNSTYRVVSVLTVLHQDWLNGKEYKCKVSNKALPASIEKTISKAKGQPREPQVYTLPPSREEMTKNQVSLSCAVKGFYPSDIAVEWESNGQPENNYKTTPPVLDSDGSFFLVSKLTVDKSRWQQGNVFSCSVMHEALHNRFTQKSLSLSPGK heavy: QMQLQESGPGLVKPSETLSLTCSVSGASISDSYWSWIRRSPGKGLEWIGYVHKSGDTNYNPSLKSRVHLSLDTSKNQVSLSLTGVTAADSGKYYCARTLHGRRIYGIVAFNEWFTYFYMDVWGTGTQVTVSSASTKGPSVFPLAPSSKSTSGGTAALGCLVKDYFPEPVTVSWNSGALTSGVHTFPAVLQSSGLYSLSSVVTVPSSSLGTQTYICNVNHKPSNTKVDKKVEPKSCDKTHTCPPCPAPEAAGGPSVFLFPPKPKDTLMISRTPEVTCVVVDVSHEDPEVKFNWYVDGVEVHNAKTKPREEQYNSTYRVVSVLTVLHQDWLNGKEYKCKVSNKALPASIEKTISKAKGQPREPQVYTLPPSREEMTKNQVSLWCLVKGFYPSDIAVEWESNGQPENNYKTTPPVLDSDGSFFLYSKLTVDKSRWQQGNVFSCSVMHEALHNHYTQKSLSLSPGK light: not shown | 1.4 µg/mL | 0.48 µg/mL | 1.1 µg/mL | 0.65 µg/mL | 2.37 µg/mL | 0.123 µg/mL |  |
| huSP34.27.8 scFv AAS + SAV + R (Fc fusion, also called R19S, T57E; R19S + T57E) EVQLVESGGGLVQPGGSLSLSCAASGFTFSTYAMNWVRQAPGKGLEWVGRIRSKYNNYAEYYAASVKGRFTISRDDSKNTLYLQMNSLRTEDTAVYYCVRHGNFGHSYVSWFAYWGQGTLVTVSSGGGGSGGGGSGGGGSGGGGSQAVVTQEPSLTVSPGGTVTLTCGSSTGAVTTGHYANWVQQKPGQAPRGLIGGTNKRAPGVPARFSGSLLGGKAALTISGAQPEDEAEYYCALWYSNRWVFGGGTKLTVLEPKSSDKTHTCPPCPAPEAAGGPSVFLFPPKPKDTLMISRTPEVTCVVVDVSHEDPEVKFNWYVDGVEVHNAKTKPREEQYNSTYRVVSVLTVLHQDWLNGKEYKCKVSNKALPASIEKTISKAKGQPREPQVYTLPPSREEMTKNQVSLSCAVKGFYPSDIAVEWESNGQPENNYKTTPPVLDSDGSFFLVSKLTVDKSRWQQGNVFSCSVMHEALHNRYTQKSLSLSPGK |  |  |  |  |  |  | 8% |
| huSP34.28.8 scFv AAS + SAV + R (Fc fusion, also called R19S, G65S; R19S + G65S) EVQLVESGGGLVQPGGSLSLSCAASGFTFSTYAMNWVRQAPGKGLEWVGRIRSKYNNYATYYAASVKSRFTISRDDSKNTLYLQMNSLRTEDTAVYYCVRHGNFGHSYVSWFAYWGQGTLVTVSSGGGGSGGGGSGGGGSGGGGSQAVVTQEPSLTVSPGGTVTLTCGSSTGAVTTGHYANWVQQKPGQAPRGLIGGTNKRAPGVPARFSGSLLGGKAALTISGAQPEDEAEYYCALWYSNRWVFGGGTKLTVLEPKSSDKTHTCPPCPAPEAAGGPSVFLFPPKPKDTLMISRTPEVTCVVVDVSHEDPEVKFNWYVDGVEVHNAKTKPREEQYNSTYRVVSVLTVLHQDWLNGKEYKCKVSNKALPASIEKTISKAKGQPREPQVYTLPPSREEMTKNQVSLSCAVKGFYPSDIAVEWESNGQPENNYKTTPPVLDSDGSFFLVSKLTVDKSRWQQGNVFSCSVMHEALHNRYTQKSLSLSPGK |  |  |  |  |  |  | 1.5% |
| huSP34.33.8 scFv AAS + SAV + R (Fc fusion, also called G65S, Q81E; G65S + Q81E) EVQLVESGGGLVQPGGSLRLSCAASGFTFSTYAMNWVRQAPGKGLEWVGRIRSKYNNYATYYAASVKSRFTISRDDSKNTLYLEMNSLRTEDTAVYYCVRHGNFGHSYVSWFAYWGQGTLVTVSSGGGGSGGGGSGGGGSGGGGSQAVVTQEPSLTVSPGGTVTLTCGSSTGAVTTGHYANWVQQKPGQAPRGLIGGTNKRAPGVPARFSGSLLGGKAALTISGAQPEDEAEYYCALWYSNRWVFGGGTKLTVLEPKSSDKTHTCPPCPAPEAAGGPSVFLFPPKPKDTLMISRTPEVTCVVVDVSHEDPEVKFNWYVDGVEVHNAKTKPREEQYNSTYRVVSVLTVLHQDWLNGKEYKCKVSNKALPASIEKTISKAKGQPREPQVYTLPPSREEMTKNQVSLSCAVKGFYPSDIAVEWESNGQPENNYKTTPPVLDSDGSFFLVSKLTVDKSRWQQGNVFSCSVMHEALHNRYTQKSLSLSPGK |  |  |  |  |  |  | 0.7% |

Source: patent US20230056252A1 (Gilead, published 2023)
